# Results taken from article PMC9482650, “Quantitative fragmentomics allow affinity mapping of interactomes” (Nature Communications, 2022).
# T1: RAPGEF6, Q8TEU7
# T1 sequence (Q8TEU7 525-625, limits assumed, looked up): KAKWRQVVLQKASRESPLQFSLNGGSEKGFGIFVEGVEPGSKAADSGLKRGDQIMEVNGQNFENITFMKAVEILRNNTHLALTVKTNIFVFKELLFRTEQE
# T2: DLG3_3, Q92796
# T2 sequence (Q92796 374-475, limits assumed, looked up): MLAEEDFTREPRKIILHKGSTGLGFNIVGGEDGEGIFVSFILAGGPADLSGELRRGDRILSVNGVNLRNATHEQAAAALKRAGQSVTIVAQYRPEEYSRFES
# T3: MPDZ_12, O75970
# T3 sequence (O75970 1857-1958, limits assumed, looked up): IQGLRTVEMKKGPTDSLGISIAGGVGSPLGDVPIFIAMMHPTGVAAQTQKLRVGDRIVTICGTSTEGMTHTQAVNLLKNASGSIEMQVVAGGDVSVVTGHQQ
# T4: MPDZ_5, O75970
# T4 sequence (O75970 695-796, limits assumed, looked up): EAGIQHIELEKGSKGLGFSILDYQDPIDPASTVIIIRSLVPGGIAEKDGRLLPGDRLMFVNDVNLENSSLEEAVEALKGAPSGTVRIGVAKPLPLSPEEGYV
# T5: FRMPD1, Q5SYB0
# T5 sequence (Q5SYB0 52-145, limits assumed, looked up): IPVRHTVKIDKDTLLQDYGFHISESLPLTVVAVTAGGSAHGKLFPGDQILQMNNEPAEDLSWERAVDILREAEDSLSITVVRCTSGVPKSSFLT
# T6: RHPN1, Q8TCX5
# T6 sequence (Q8TCX5 508-602, limits assumed, looked up): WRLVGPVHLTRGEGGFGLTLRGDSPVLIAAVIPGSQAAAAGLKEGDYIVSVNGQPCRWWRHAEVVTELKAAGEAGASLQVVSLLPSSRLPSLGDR
# T7: GRIP1_2, Q9Y3R0
# T7 sequence (Q9Y3R0 145-248, limits assumed, looked up): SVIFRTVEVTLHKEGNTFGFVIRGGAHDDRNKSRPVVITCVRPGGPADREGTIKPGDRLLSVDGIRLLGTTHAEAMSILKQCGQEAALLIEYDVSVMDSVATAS
# T8: PDZD2_2, O15018
# T8 sequence (O15018 329-429, limits assumed, looked up): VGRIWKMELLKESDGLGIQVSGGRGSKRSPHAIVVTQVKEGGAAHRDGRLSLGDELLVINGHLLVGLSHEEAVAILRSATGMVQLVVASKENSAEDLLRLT
# T9: APBA2_1, Q99767
# T9 sequence (Q99767 563-664, limits assumed, looked up): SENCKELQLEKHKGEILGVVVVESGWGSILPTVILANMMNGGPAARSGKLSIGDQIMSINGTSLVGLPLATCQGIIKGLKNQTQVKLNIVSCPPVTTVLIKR
# T10: DFNB31_3, Q9P202
# T10 sequence (Q9P202 811-907, limits assumed, looked up): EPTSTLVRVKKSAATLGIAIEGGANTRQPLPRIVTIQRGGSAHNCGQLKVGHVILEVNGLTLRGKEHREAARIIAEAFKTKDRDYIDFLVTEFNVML
# T11: PTPN13_1, Q12923
# T11 sequence (Q12923 1088-1188, limits assumed, looked up): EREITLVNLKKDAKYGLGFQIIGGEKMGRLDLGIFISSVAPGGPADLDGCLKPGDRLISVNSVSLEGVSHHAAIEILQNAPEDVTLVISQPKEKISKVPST
# T12: LNX2_3, Q8N448
# T12 sequence (Q8N448 463-564, limits assumed, looked up): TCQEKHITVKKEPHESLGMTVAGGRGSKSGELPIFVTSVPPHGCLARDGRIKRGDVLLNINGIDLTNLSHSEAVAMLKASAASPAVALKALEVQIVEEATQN
# Key:
# Assay in all cases: holdup assay
# Design in all cases: key: below the threshold = too weak to quantify, mostly under pKd 3.1 to 4
# Details in all cases: plain residues with an end cap or a label only (N-terminal biotin on a linker: ado-ado)
# AHNAK1, Q09666 = biological target: AHNAK1, Q09666
# AHNAK1, Q09666, sequence (Q09666 4-100): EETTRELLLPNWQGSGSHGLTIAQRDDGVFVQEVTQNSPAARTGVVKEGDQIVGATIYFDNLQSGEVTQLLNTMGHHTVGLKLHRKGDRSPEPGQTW
# RAPGEF6, Q8TEU7 = biological target: T1, RAPGEF6, Q8TEU7
# NHERF4_1, Q86UT5-2 = biological target: NHERF4_1, Q86UT5-2
# NHERF4_1, Q86UT5-2, sequence (Q86UT5 other isoform, or with tags, fused parts or gaps): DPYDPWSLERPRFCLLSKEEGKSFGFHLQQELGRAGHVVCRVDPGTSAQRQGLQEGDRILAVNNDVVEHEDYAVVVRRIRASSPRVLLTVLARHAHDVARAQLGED
# GRIP2_7, Q9C0E4 = biological target: GRIP2_7, Q9C0E4
# GRIP2_7, Q9C0E4, sequence (Q9C0E4 934-1023): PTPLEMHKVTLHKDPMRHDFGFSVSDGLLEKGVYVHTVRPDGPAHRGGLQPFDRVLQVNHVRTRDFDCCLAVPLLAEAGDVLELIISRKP
# NOS1, P29475 = biological target: NOS1, P29475
# NOS1, P29475, sequence (P29475 9-101): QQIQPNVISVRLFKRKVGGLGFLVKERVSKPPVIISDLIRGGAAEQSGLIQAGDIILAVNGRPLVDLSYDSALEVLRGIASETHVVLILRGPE
# DLG3_3, Q92796 = biological target: T2, DLG3_3, Q92796
# FRMPD2_3, Q68DX3 = biological target: FRMPD2_3, Q68DX3
# FRMPD2_3, Q68DX3, sequence (Q68DX3 1073-1166): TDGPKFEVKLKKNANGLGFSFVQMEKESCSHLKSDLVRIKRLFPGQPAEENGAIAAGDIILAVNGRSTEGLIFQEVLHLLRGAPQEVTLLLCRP
# MPDZ_12, O75970 = biological target: T3, MPDZ_12, O75970
# MPDZ_5, O75970 = biological target: T4, MPDZ_5, O75970
# SNX27, Q96L92 = biological target: SNX27, Q96L92
# DLG2_2, Q15700 = biological target: DLG2_2, Q15700
# DLG2_2, Q15700, sequence (Q15700 189-283): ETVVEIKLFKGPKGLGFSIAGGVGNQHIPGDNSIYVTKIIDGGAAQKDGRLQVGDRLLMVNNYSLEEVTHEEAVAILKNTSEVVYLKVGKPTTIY
# FRMPD1, Q5SYB0 = biological target: T5, FRMPD1, Q5SYB0
# Inadl_8, Q8NI35 = biological target: Inadl_8, Q8NI35
# Inadl_8, Q8NI35, sequence (Q8NI35 1425-1530): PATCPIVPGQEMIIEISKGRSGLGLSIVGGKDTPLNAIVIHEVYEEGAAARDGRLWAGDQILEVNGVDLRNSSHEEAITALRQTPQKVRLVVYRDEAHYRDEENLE
# RHPN1, Q8TCX5 = biological target: T6, RHPN1, Q8TCX5
# MAGI2_2, Q86UL8 = biological target: MAGI2_2, Q86UL8
# MAGI2_2, Q86UL8, sequence (Q86UL8 410-522): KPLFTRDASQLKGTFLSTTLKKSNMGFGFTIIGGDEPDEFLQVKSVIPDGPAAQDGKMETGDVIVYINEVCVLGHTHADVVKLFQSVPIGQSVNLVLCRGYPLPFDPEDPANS
# GRIP1_2, Q9Y3R0 = biological target: T7, GRIP1_2, Q9Y3R0
# LNX1_2, Q8TBB1 = biological target: LNX1_2, Q8TBB1
# LNX1_2, Q8TBB1, sequence (Q8TBB1 371-470): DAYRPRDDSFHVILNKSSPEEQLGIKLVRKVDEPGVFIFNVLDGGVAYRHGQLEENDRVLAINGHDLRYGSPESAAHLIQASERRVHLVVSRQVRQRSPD
# HTRA2, O43464 = biological target: HTRA2, O43464
# HTRA2, O43464, sequence (O43464 355-458): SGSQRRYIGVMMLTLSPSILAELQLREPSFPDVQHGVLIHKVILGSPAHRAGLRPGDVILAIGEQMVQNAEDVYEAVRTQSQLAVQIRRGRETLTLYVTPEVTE
# GRIP2_3, Q9C0E4 = biological target: GRIP2_3, Q9C0E4
# GRIP2_3, Q9C0E4, sequence (Q9C0E4 238-339): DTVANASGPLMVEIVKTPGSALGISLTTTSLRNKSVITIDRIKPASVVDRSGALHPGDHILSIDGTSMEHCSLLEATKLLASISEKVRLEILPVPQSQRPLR
# PDZD2_2, O15018 = biological target: T8, PDZD2_2, O15018
# APBA2_1, Q99767 = biological target: T9, APBA2_1, Q99767
# DFNB31_3, Q9P202 = biological target: T10, DFNB31_3, Q9P202
# PTPN13_1, Q12923 = biological target: T11, PTPN13_1, Q12923
# LNX2_3, Q8N448 = biological target: T12, LNX2_3, Q8N448
Binder,"pKd (AHNAK1, Q09666)","pKd (RAPGEF6, Q8TEU7)","pKd (NHERF4_1, Q86UT5-2)","pKd (GRIP2_7, Q9C0E4)","pKd (NOS1, P29475)","pKd (DLG3_3, Q92796)","pKd (FRMPD2_3, Q68DX3)","pKd (MPDZ_12, O75970)","pKd (MPDZ_5, O75970)","pKd (SNX27, Q96L92)","pKd (DLG2_2, Q15700)","pKd (FRMPD1, Q5SYB0)","pKd (Inadl_8, Q8NI35)","pKd (RHPN1, Q8TCX5)","pKd (MAGI2_2, Q86UL8)","pKd (GRIP1_2, Q9Y3R0)","pKd (LNX1_2, Q8TBB1)","pKd (HTRA2, O43464)","pKd (GRIP2_3, Q9C0E4)","pKd (PDZD2_2, O15018)",further results
"SAKVRTVTSV [RASL11B, Q9BPW5]",below the threshold,below the threshold,3.77,below the threshold,3.9,4.89,below the threshold,below the threshold,below the threshold,4.73,4.79,below the threshold,4.43,3.83,5.92,below the threshold,3.92,below the threshold,below the threshold,4.25,"pKd (APBA2_1, Q99767): below the threshold; pKd (DFNB31_3, Q9P202): below the threshold; pKd (PTPN13_1, Q12923): below the threshold; pKd (LNX2_3, Q8N448): below the threshold"
"PAPSSGKDYV [CLDN1, O95832]",below the threshold,below the threshold,3.62,3.63,4.06,below the threshold,below the threshold,below the threshold,below the threshold,3.62,below the threshold,below the threshold,3.92,below the threshold,below the threshold,below the threshold,below the threshold,below the threshold,below the threshold,4.59,"pKd (APBA2_1, Q99767): below the threshold; pKd (DFNB31_3, Q9P202): below the threshold; pKd (PTPN13_1, Q12923): below the threshold; pKd (LNX2_3, Q8N448): below the threshold"
"NHSSSPETTA [TRMT13, Q9NUP7]",below the threshold,below the threshold,below the threshold,below the threshold,below the threshold,below the threshold,below the threshold,below the threshold,below the threshold,below the threshold,below the threshold,below the threshold,below the threshold,below the threshold,below the threshold,below the threshold,below the threshold,below the threshold,below the threshold,below the threshold,"pKd (APBA2_1, Q99767): below the threshold; pKd (DFNB31_3, Q9P202): below the threshold; pKd (PTPN13_1, Q12923): below the threshold; pKd (LNX2_3, Q8N448): below the threshold"

# More lines, main results first:
"pKd (AHNAK1, Q09666)","pKd (RAPGEF6, Q8TEU7)","pKd (NHERF4_1, Q86UT5-2)","pKd (GRIP2_7, Q9C0E4)","pKd (NOS1, P29475)","pKd (DLG3_3, Q92796)","pKd (FRMPD2_3, Q68DX3)","pKd (MPDZ_12, O75970)","pKd (MPDZ_5, O75970)","pKd (SNX27, Q96L92)","pKd (DLG2_2, Q15700)","pKd (FRMPD1, Q5SYB0)","pKd (Inadl_8, Q8NI35)","pKd (RHPN1, Q8TCX5)","pKd (MAGI2_2, Q86UL8)","pKd (GRIP1_2, Q9Y3R0)","pKd (LNX1_2, Q8TBB1)","pKd (HTRA2, O43464)","pKd (GRIP2_3, Q9C0E4)","pKd (PDZD2_2, O15018)",Binder,further results
below the threshold,below the threshold,3.89,3.56,3.74,below the threshold,below the threshold,below the threshold,below the threshold,5.19,4.9,below the threshold,4.13,4.68,3.86,below the threshold,3.99,below the threshold,below the threshold,4.79,"PDGQCTVTEV [RNF146, Q9NTX7]","pKd (APBA2_1, Q99767): below the threshold; pKd (DFNB31_3, Q9P202): 3.99; pKd (PTPN13_1, Q12923): below the threshold; pKd (LNX2_3, Q8N448): below the threshold"
below the threshold,below the threshold,4.27,below the threshold,3.88,below the threshold,below the threshold,below the threshold,below the threshold,4.78,below the threshold,below the threshold,3.8,4.62,below the threshold,below the threshold,below the threshold,below the threshold,below the threshold,4.32,"QGLAERISVL [PRKD2, Q9BZL6]","pKd (APBA2_1, Q99767): below the threshold; pKd (DFNB31_3, Q9P202): 4.26; pKd (PTPN13_1, Q12923): below the threshold; pKd (LNX2_3, Q8N448): below the threshold"
below the threshold,3.64,below the threshold,3.58,4.12,4.54,below the threshold,below the threshold,3.56,5.83,4.2,below the threshold,3.86,4.68,3.76,3.59,3.59,below the threshold,below the threshold,4.99,"EVEEFPETSV [TRPV3, Q8NET8]","pKd (APBA2_1, Q99767): below the threshold; pKd (DFNB31_3, Q9P202): below the threshold; pKd (PTPN13_1, Q12923): 3.58; pKd (LNX2_3, Q8N448): 3.62"
